Data on one molecule can be found in PMC3499988 (Biochemistry, 2011).

What all share (assay): SPR
For experiment [1], the target named is T1, HIV-1 YU-2 gp120 (HIV-1 (YU-2), UniProt P35961).
The target in experiment [2] is T1, HIV-1 YU-2 gp120. This is another data set of the same source.
Experiment [3] addresses T2, HIV-1 HXBc2 gp120 (HIV-1 (HXBc2), UniProt P04578).
The target in experiment [4] is T1, HIV-1 YU-2 gp120. The source holds these as a separate data set.
The target in experiment [5] is T2, HIV-1 HXBc2 gp120. This is another data set of the same source.
Experiment [6] concerns the target T1, HIV-1 YU-2 gp120. This is another data set of the same source.
Experiment [7] has as its target T2, HIV-1 HXBc2 gp120. The source holds these as a separate data set.

Like-named read-outs stand apart in the source and are kept apart here.

B1: Fab m18 F99A (HCDR3) (Fab, V domains shown)
VH: VQLLESGPGVVKPSETLSLTCTVSGASVNNYYWTWVRQPPGKGLEWIGNVYDSGDTNYNPSLSSRLSLSMDTSKNQFSLRLSSVTAADTATYYCARYHRHAIRGPLSFDYWGRGTLVTVSS
VL: LQMTQSPSFLSASVGDRVSITCRASQDIQKFLAWYQLTPGDAPKLLMYSASTLQSGVPSRFSGSGSGTEFTLTISGLQPEDFATYYCQHLKRYPYTFGQGTKLEIS
Usually Kd stands for a measure of binding affinity in units of concentration. Read a high Kd as lower affinity. For orientation: koff means a measure of how fast the partners let go of each other. Lower therefore signals slow dissociation. Usually kon stands for a measure of how fast the partners come together. The IC50 is the concentration that inhibits the measured activity by half. A higher IC50 goes with weaker potency. For B1, the binding result with HIV-1 YU-2 gp120 [1] is “binds”. Moreover, the Kd in the experiment with HIV-1 YU-2 gp120 [2] turned out to be 5.9 nM; in the experiment with HIV-1 HXBc2 gp120 [3], 1.3 nM. For the same molecule, the koff with HIV-1 YU-2 gp120 [2] was found to be 0.00026 ± 1.5 s⁻¹; with HIV-1 HXBc2 gp120 [3], 0.00013 ± 0.1 s⁻¹. Further, the kon with HIV-1 YU-2 gp120 [2] came out at 45000 ± 2.5 M⁻¹ s⁻¹; with HIV-1 HXBc2 gp120 [3], 100000 ± 0.02 M⁻¹ s⁻¹. Also, the IC50 in the experiment with HIV-1 YU-2 gp120 [4] is over 500 nM; with HIV-1 HXBc2 gp120 [5], 58.2 ± 4.3 nM; in the experiment with HIV-1 YU-2 gp120 [6], over 500 nM; with HIV-1 HXBc2 gp120 [7], 69.5 ± 3.7 nM.
